Earlier results as cited in patent US4786501A, “Cylindrical implants for the controlled release of growth hormones” (International Minerals & Chemical Corp., priority 1985, dated 1988).

Columns and labels:
young swine = conditions: field trials
cows = conditions: field trials, Machlin 1973

B1: native PGH: native porcine growth hormone, protein containing 191 amino acid residues (protein, UniProt P01248 27-216, looked up)
Somatotropin: FPAMPLSSLFANAVLRAQHLHQLAADTYKEFERAYIPEGQRYSIQNAQAAFCFSETIPAPTGKDEAQQRSDVELLRFSLLLIQSWLGPVQFLSRVFTNSLVFGTSDRVYEKLKDLEEGIQALMRELEDGSPRAGQILKQTYDKFDTNLRSDDALLKNYGLLSCFKKDLHKAETYLRVMKCRRFVESSCAF
- growth rates (young swine): increased growth rates

B2: BGH: bovine growth hormone purified from pituitary glands, protein containing 191 amino acid residues (protein, UniProt P01246 27-217, looked up)
Somatotropin: AFPAMSLSGLFANAVLRAQHLHQLAADTFKEFERTYIPEGQRYSIQNTQVAFCFSETIPAPTGKNEAQQKSDLELLRISLLLIQSWLGPLQFLSRVFTNSLVFGTSDRVYEKLKDLEEGILALMRELEDGTPRAGQILKQTYDKFDTNMRSDDALLKNYGLLSCFRKDLHKTETYLRVMKCRRFGEASCAF
- feed-to-milk conversion (cows): improved feed-to-milk conversion
- milk production (cows): increased milk production
